Patent publication US20070149763A1 (Bristol-Myers Squibb, published 2007)
Each block holds one molecule with its values, some of them ahead of it. Where no end group is shown, it is not given here. Alexa488 = Alexa488 fluorophore label

Assays:
[1] = target: BACE (recombinant human BACE catalytic domain, expressed in CHO cells as BACE-T-IgG, IgG1 removed with thrombin) (human) (UniProt P56817); experiment: binding assay without UV light (fluorescence anisotropy); absence of UV light
[2] = target: BACE (recombinant human BACE catalytic domain, expressed in CHO cells as BACE-T-IgG, IgG1 removed with thrombin) (human) (UniProt P56817); experiment: ITC, 50 mM NaOAc, pH 4.5, 25° C.
[3] = target: BACE (recombinant human BACE catalytic domain, expressed in CHO cells as BACE-T-IgG, IgG1 removed with thrombin) (human) (UniProt P56817); experiment: ITC, 25° C., 50 mM NaOAc, pH 4.5
[4] = target: BACE (recombinant human BACE catalytic domain, expressed in CHO cells as BACE-T-IgG, IgG1 removed with thrombin) (human) (UniProt P56817); experiment: ITC, Dulbecco's PBS, pH 7.0, 25° C.
[5] = target: BACE (recombinant human BACE catalytic domain, expressed in CHO cells as BACE-T-IgG, IgG1 removed with thrombin) (human) (UniProt P56817); experiment: ITC, 25° C., Dulbecco's PBS
[6] = target: BACE (recombinant human BACE catalytic domain, expressed in CHO cells as BACE-T-IgG, IgG1 removed with thrombin) (human) (UniProt P56817); experiment: fluorescence anisotropy binding assay
[7] = target: BACE (recombinant human BACE catalytic domain, expressed in CHO cells as BACE-T-IgG, IgG1 removed with thrombin) (human) (UniProt P56817); experiment: fluorescence anisotropy competition against Molecule X on BACE, pH 4.5, lower panel; labelled 'Ka(nM)' on the sheet, it is the dissociation constant of the competing ligand; error 337.16; the text prints it rounded (1073 nM)
[8] = target: BACE (recombinant human BACE catalytic domain, expressed in CHO cells as BACE-T-IgG, IgG1 removed with thrombin) (human) (UniProt P56817); experiment: fluorescence anisotropy competition against 10 nM Molecule X on BACE, pH 7.1, upper panel
[9] = target: BACE (recombinant human BACE catalytic domain, expressed in CHO cells as BACE-T-IgG, IgG1 removed with thrombin) (human) (UniProt P56817); experiment: ITC, pH 5.3, 37° C., peptide titrated into CHO BACE
[10] = target: BACE (recombinant human BACE catalytic domain, expressed in CHO cells as BACE-T-IgG, IgG1 removed with thrombin) (human) (UniProt P56817); experiment: fluorescence anisotropy competition against Molecule X on BACE, pH 7.1, upper panel; labelled 'Ka' on the sheet without a unit, it is the dissociation constant of the competing ligand, nM from the axis and the lower table; error 33.456; the text prints it rounded (84 nM)
[11] = target: BACE (recombinant human BACE catalytic domain, expressed in CHO cells as BACE-T-IgG, IgG1 removed with thrombin) (human) (UniProt P56817); experiment: ITC, pH 5.3, 37° C., peptide titrated into CHO BACE pre-incubated with a 10-fold excess of OM99-2
[12] = target: BACE (recombinant human BACE catalytic domain, expressed in CHO cells as BACE-T-IgG, IgG1 removed with thrombin) (human) (UniProt P56817); experiment: fluorescence anisotropy competition against Molecule X, pH 7.1
[13] = target: BACE (recombinant human BACE catalytic domain, expressed in CHO cells as BACE-T-IgG, IgG1 removed with thrombin) (human) (UniProt P56817); experiment: fluorescence anisotropy competition against Molecule X, pH 4.5
[14] = target: BACE (recombinant human BACE catalytic domain, expressed in CHO cells as BACE-T-IgG, IgG1 removed with thrombin) (human) (UniProt P56817); experiment: ITC, Dulbecco's PBS, pH 7.1, 25° C.
[15] = target: BACE (recombinant human BACE catalytic domain, expressed in CHO cells as BACE-T-IgG, IgG1 removed with thrombin) (human) (UniProt P56817); experiment: fluorescence anisotropy, BACE titrated into 10 nM labeled peptide, pH 7.1, 1:1 model
[16] = target: BACE (recombinant human BACE catalytic domain, expressed in CHO cells as BACE-T-IgG, IgG1 removed with thrombin) (human) (UniProt P56817); experiment: fluorescence anisotropy, BACE titrated into 10 nM labeled peptide, pH 4.5, 1:1 model
[17] = target: BACE (recombinant human BACE catalytic domain, expressed in CHO cells as BACE-T-IgG, IgG1 removed with thrombin) (human) (UniProt P56817); experiment: fluorescence anisotropy binding assay, pH 4.5
[18] = target: BACE (recombinant human BACE catalytic domain, expressed in CHO cells as BACE-T-IgG, IgG1 removed with thrombin) (human) (UniProt P56817); experiment: fluorescence anisotropy, pH 4.5 (value quoted for the labeled EBP used in the truncation screen)
[19] = target: BACE (recombinant human BACE catalytic domain, expressed in CHO cells as BACE-T-IgG, IgG1 removed with thrombin) (human) (UniProt P56817); experiment: fluorescence anisotropy, BACE titrated into 10 nM Molecule Y1 in the presence of 10 µM OM99-2, fit to 1:1 binding (error 1.5032); this table prints 'Kd' without a unit, nM is taken from the concentration axis and the -OM99-2 table
[20] = target: BACE (recombinant human BACE catalytic domain, expressed in CHO cells as BACE-T-IgG, IgG1 removed with thrombin) (human) (UniProt P56817); experiment: fluorescence anisotropy, BACE titrated into 10 nM Molecule Y1, no OM99-2, fit to 1:1 binding (error 2.1556); the text prints this value rounded (57 / 58 nM)
[21] = target: BACE (recombinant human BACE catalytic domain, expressed in CHO cells as BACE-T-IgG, IgG1 removed with thrombin) (human) (UniProt P56817); experiment: fluorescence anisotropy, BACE titrated into 10 nM Molecule Y1 with 10 µM OM99-2; reference: without OM99-2
[22] = target: BACE (recombinant human BACE catalytic domain, expressed in CHO cells as BACE-T-IgG, IgG1 removed with thrombin) (human) (UniProt P56817); experiment: fluorescence anisotropy binding assay, pH 4.5; comparison of label positions (X, Y1, Z)
[23] = target: BACE (recombinant human BACE catalytic domain, expressed in CHO cells as BACE-T-IgG, IgG1 removed with thrombin) (human) (UniProt P56817); experiment: cell-based or functional assay
[24] = target: T1, BACE-1 (T7-BACE1(A14-T454)) (Homo sapiens (Human), UniProt P56817 14-454); experiment: X-ray crystallography, peptide soaked into BACE-1/DPH-153979 co-crystal
T1 construct: BACE dimer in the asymmetric unit; also called Construct #1
Procedure: Crystals appeared overnight and grew to their final dimensions (0.4×0.3×0.2 mm) in about two weeks.
Data were collected at 100° K using a Rigaku R-axis II system mounted on a RU-200 rotating anode generator and processed using HKL2000 (Otwinowski et. al., (1997) Methods in Enzymology, Macromolecular Crystallography, Part A; C. W. Carter, Jr. and R. M. Sweet, Eds.; Academic Press: New York, 276:307-326) (Table 6). The structure was determined by molecular replacement using the program EPMR (Kissinger et. al. (1999) Acta Crystallog. Sect. D, 55:484-491) in space group P2₁ with one BACE dimer per asymmetric unit. The starting model used was a BACE dimer (without inhibitor) from a previously determined structure. […] The active site inhibitor DPH-153979 was built into the electron density using the program QUANTA (Accelrys Software, Inc.) and refinement was carried out using the program CNX (Accelrys Software, Inc.). […] Refinement was not carried out past initial building of YPYFI due to ambiguous exosite peptide density.

[25] = target: BACE (recombinant human BACE catalytic domain, expressed in CHO cells as BACE-T-IgG, IgG1 removed with thrombin) (human) (UniProt P56817); experiment: fluorescence anisotropy competition against Molecule Y1, pH 4.5
[26] = target: BACE (recombinant human BACE catalytic domain, expressed in CHO cells as BACE-T-IgG, IgG1 removed with thrombin) (human) (UniProt P56817); experiment: fluorescence anisotropy competition against Molecule Y1 on BACE, pH 4.5; labelled 'Ka(nM)' on the sheet, it is the dissociation constant of the competing ligand; error 102.58; the text prints 1197 nM
[27] = target: BACE (recombinant human BACE catalytic domain, expressed in CHO cells as BACE-T-IgG, IgG1 removed with thrombin) (human) (UniProt P56817); experiment: fluorescence anisotropy competition against 10 nM Molecule Y1 on BACE, pH 4.5

Chain of BACE (recombinant human BACE catalytic domain, expressed in CHO cells as BACE-T-IgG, IgG1 removed with thrombin) (human) (P56817 43-460 limits assumed, form in doubt): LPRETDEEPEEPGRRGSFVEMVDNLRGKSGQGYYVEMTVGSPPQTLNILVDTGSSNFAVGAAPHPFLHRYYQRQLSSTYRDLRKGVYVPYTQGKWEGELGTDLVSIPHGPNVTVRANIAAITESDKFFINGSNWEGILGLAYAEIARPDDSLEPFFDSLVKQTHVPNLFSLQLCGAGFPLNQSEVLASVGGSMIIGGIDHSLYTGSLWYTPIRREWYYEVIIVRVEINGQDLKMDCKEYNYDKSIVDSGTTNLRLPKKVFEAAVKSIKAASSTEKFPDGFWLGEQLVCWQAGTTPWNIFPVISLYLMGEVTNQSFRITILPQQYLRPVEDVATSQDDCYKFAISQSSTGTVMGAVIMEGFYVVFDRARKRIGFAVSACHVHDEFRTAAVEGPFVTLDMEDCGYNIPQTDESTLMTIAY
T1 sequence (P56817 other isoform, or with tags, fused parts or gaps limits assumed): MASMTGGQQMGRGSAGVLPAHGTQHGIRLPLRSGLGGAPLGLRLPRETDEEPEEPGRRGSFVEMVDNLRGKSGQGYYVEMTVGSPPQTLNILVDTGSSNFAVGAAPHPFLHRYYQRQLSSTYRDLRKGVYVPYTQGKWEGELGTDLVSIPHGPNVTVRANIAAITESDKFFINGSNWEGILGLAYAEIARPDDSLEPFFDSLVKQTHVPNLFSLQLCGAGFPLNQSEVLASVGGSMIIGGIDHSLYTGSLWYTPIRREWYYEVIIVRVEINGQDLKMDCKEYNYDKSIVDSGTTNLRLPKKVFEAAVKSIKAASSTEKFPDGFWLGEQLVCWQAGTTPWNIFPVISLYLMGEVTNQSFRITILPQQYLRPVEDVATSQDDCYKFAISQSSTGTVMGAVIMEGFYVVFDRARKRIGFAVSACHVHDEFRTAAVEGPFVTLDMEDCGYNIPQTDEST

Molecule: YPYFIPB-Alexa488 (peptide)
- Kd [1]: 100 nM

Molecule: YPBFIPL-Alexa488 (peptide)
- Kd [1]: 100 nM

Molecule: Ac-HWPFFIRS-NH2 [BMS-655507 (Ac-His-Trp-Pro-Phe-Phe-Ile-Arg-Ser)]
- Kd [2]: 1640 nM
- Stoichiometry [2]: 0.86
- TΔS [2]: -5.46 kcal/mol
- ΔG [2]: -7.9 kcal/mol
- ΔH [2]: -13.3 kcal/mol
- Ka [3]: 610000 M⁻¹
- Kd [4]: 914 nM
- Stoichiometry [4]: 0.71
- TΔS [4]: -9.81 kcal/mol
- ΔG [4]: -8.23 kcal/mol
- ΔH [4]: -18 kcal/mol
- Ka [5]: 1.09e+06 M⁻¹

Molecule: YPYFIPL (not fully specified (N-terminus, C-terminus)) [Molecule Y2]
- Kd [6]: 92 nM

Molecule: YPYFIPL (not fully specified (N-terminus, C-terminus)) [Molecule Y1 (YPYFIPL with C-terminal Alexa488)]
- Kd [19]: 9.59 nM
- Kd [6]: 57 nM
- Kd [20]: 57.6 nM
- fold enhancement of affinity in the presence of 10 µM OM99-2 [21]: 5 fold
- Kd [22]: 58 nM

Molecule: YPYFIPL (not fully specified (N-terminus, C-terminus)) [Molecule Y3]
- Kd [6]: 48 nM
- IC50, inhibition of the proteolytic activity of BACE (cleavage of MCA-…(-dnp)-COOH, HPLC) [23]: 731 nM

Second part, the molecule after the results:

- Kd [7]: 1070 nM
- IC50 (read off the curve) [8]: 500 nM
- Kd [9]: 380 nM
- Stoichiometry (mole:mole) [9]: 0.93 mole:mole
- T(dS) [9]: -6.8 kcal/mol
- ΔG [9]: -9.1 kcal/mol
- ΔH [9]: -15.9 kcal/mol
- Kd [10]: 84.2 nM
- Kd [11]: 280 nM
- Stoichiometry (mole:mole) [11]: 0.96 mole:mole
- T(dS) [11]: -5.7 kcal/mol
- ΔG [11]: -9.3 kcal/mol
- ΔH [11]: -15 kcal/mol
- Kd [12]: 84 nM
- Ka [5]: 1.65e+07 M⁻¹
- n (stoichiometry) [5]: 1.03
- ΔH [5]: -12.9 kcal/mol
- Kd [13]: 1070 nM
- Kd [14]: 61 nM
Molecule: Ac-NLTTYPYFIPLP-NH2

- Kd [15]: 139 nM
- Kd [16]: 904 nM
- Kd [17]: 903 nM
- Kd [18]: 1000 nM
Molecule: NLTTYPYFIPLP (also: Alexa488 label, position shown only) [Molecule X (… labeled with Alexa488)]

- binding result [24]: binds
Molecule: YPYFIPL-Alexa488 [BMS-597041 (YPYFIPL-Alexa488 Fluorophore)]

- Kd [6]: 62 nM
Molecule: YPYFIPL (not fully specified (N-terminus, C-terminus)) [Molecule Y4]

- Ka [5]: 8.86e+06 M⁻¹
- n (stoichiometry) [5]: 1.06
- ΔH [5]: -11.8 kcal/mol
- Kd [14]: 113 nM
Molecule: Ac-ALYPYFLPISAK-NH2

- Kd [25]: 1200 nM
- Kd [26]: 1200 nM
- IC50 (read off the curve) [27]: 3000 nM
Molecule: Ac-YPYFIPL-NH2
